According to US20130323819A1 (HERA PHARMACEUTICALS, published 2013):

Assays:
[1] = target: T1, SAI/II antigen (SAI/II adhesion of S. mutans) (Streptococcus mutans, UniProt P23504 39-1532); test: ELISA, SAI/II coated, culture supernatant; integrated strain against plasmid strain (same polypeptide, different amount)
T1 construct: Coated on ELISA plates at 1 ug/ml in PBS
T1 sequence (looked up): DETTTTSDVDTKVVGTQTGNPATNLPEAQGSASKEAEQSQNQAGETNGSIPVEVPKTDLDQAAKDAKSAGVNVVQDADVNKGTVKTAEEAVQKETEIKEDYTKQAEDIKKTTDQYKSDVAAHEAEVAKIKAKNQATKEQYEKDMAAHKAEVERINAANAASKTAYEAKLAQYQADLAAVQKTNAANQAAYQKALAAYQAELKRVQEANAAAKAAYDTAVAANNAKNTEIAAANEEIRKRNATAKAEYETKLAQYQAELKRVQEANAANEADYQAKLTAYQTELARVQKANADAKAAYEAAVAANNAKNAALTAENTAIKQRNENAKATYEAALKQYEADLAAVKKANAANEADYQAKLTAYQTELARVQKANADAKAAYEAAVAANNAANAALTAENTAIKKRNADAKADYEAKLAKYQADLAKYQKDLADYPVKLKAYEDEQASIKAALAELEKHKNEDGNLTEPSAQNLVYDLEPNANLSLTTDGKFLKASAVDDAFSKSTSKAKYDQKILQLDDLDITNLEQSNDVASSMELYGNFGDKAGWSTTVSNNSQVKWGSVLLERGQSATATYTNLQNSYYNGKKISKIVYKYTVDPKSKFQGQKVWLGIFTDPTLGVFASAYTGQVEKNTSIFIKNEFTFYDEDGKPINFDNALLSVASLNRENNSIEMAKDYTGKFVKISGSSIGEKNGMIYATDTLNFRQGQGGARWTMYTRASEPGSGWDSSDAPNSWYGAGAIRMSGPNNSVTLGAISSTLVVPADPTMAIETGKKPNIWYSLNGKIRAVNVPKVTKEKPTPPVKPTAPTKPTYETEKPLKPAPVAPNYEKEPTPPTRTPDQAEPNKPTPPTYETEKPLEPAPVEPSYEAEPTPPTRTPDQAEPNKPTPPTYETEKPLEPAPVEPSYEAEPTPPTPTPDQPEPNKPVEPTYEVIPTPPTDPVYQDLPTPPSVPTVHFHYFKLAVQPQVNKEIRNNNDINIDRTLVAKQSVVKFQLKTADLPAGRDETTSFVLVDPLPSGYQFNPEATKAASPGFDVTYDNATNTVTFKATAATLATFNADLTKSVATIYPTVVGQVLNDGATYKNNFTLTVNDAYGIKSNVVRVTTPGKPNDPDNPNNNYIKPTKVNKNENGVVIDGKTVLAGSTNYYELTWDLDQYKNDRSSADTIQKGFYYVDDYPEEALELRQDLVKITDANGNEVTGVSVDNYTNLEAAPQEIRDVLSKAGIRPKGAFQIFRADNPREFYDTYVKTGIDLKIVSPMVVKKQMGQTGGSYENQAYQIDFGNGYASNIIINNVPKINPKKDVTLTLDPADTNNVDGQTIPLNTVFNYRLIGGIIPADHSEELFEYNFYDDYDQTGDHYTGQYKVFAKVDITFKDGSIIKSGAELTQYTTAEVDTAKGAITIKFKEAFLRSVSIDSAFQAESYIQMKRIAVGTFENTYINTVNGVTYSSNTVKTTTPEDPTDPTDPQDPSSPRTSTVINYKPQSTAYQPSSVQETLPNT

[2] = target: T1, SAI/II antigen (SAI/II adhesion of S. …); test: ELISA, SAI/II coated, whole bacterial cells; integrated strain against plasmid strain (same polypeptide, different amount)

B1: secreted and attached scFv anti-SAI/II (E-tagged) fused to the middle region and C-terminal domain of APF, produced by L. paracasei pAF400 (plasmid) or L. … (scFv)
scFv: AIVEGSAAQPAMDAQVKLQESGPDLVKPGASVKISCKASGYTFTDYNIHWVKQSRGKSLEWIGYIYPYNGNTYYNQKFKNKATLTVDNSSTSAYMELRSLTPEDSAVYYCATYFDYWGQGTTVTVSSGGGGSGGGGSGGGGSDIELTQSPAIMSASPGEKVTITCSASSSVSYMHWFQQKPGTSPKLWLYSTSNLASGVPARFSGSGSGTSYSLTISRMEAEDAATYYCHQRTSYPYTFGGGTKLEIKRAAAAGAPVPYPDPLEPRAAASEELYHTQAAVTQAPVQHQTQTENTNSAATTTAANNTNTQTTTSTVSGSEASAKEWIAGRESGGSYGASNGQYVGKYQLSASYLNGDYSAANQERVADNYVKGRYGSWTAAKAFWQANGWY
notes: Same polypeptide from the plasmid strain and the integrated strain (pEM171 = pEM76 with the expression cassette of pAF400); tested as culture supernatant and as whole cells (attached form); also called pEM171
- fold reduction in binding activity against the corresponding plasmid system (L. paracasei pAF400) [1]: 4 fold

B2: secreted scFv anti-SAI/II (E-tagged) produced by L. paracasei pAF100 (plasmid) or L. paracasei EM182 (chromosomally integrated) (scFv)
scFv: AIVEGSAAQPAMDAQVKLQESGPDLVKPGASVKISCKASGYTFTDYNIHWVKQSRGKSLEWIGYIYPYNGNTYYNQKFKNKATLTVDNSSTSAYMELRSLTPEDSAVYYCATYFDYWGQGTTVTVSSGGGGSGGGGSGGGGSDIELTQSPAIMSASPGEKVTITCSASSSVSYMHWFQQKPGTSPKLWLYSTSNLASGVPARFSGSGSGTSYSLTISRMEAEDAATYYCHQRTSYPYTFGGGTKLEIKRAAAAGAPVPYPDPLEPRAA
notes: Same polypeptide from the plasmid strain and the integrated strain (pEM182 = pEM76 with the expression cassette of pAF100); tested as culture supernatant; also called pEM182
- fold reduction in binding activity against the corresponding plasmid system (L. paracasei pAF100) [1]: ≥ 8 fold

B3: surface anchored scFv anti-SAI/II (E-tagged) fused to the prtP anchor region, displayed on L. paracasei pAF900 (plasmid) or L. paracasei EM181 (chromosomally … (scFv)
scFv: AIVEGSAAQPAMDAQVKLQESGPDLVKPGASVKISCKASGYTFTDYNIHWVKQSRGKSLEWIGYIYPYNGNTYYNQKFKNKATLTVDNSSTSAYMELRSLTPEDSAVYYCATYFDYWGQGTTVTVSSGGGGSGGGGSGGGGSDIELTQSPAIMSASPGEKVTITCSASSSVSYMHWFQQKPGTSPKLWLYSTSNLASGVPARFSGSGSGTSYSLTISRMEAEDAATYYCHQRTSYPYTFGGGTKLEIKRAAAAGAPVPYPDPLEPRAAASKKTSLLNQLQSVKAALGTDLGNQTDPSTGKTFMAALDDLVAQAQAGTQTADQLQASLAKVLDAVLAKLAEGIKAATPAEVGNAKDAATGKTWYADIADTLTSGQASADASDKLAHLQALQSLKTKVAAAVEAAKTAGKGDDTSGTSDKGGGQGTPAPAPGDTGKNKGDEGSQPSSGGNIPTKPATTTSTSTDDTTDRNGQHTSGKGALPKTAETTERPAFGFLGVIVVSLMGVLGLKRKQREE
modifications: On the cells the chain is covalently linked to the cell wall through the prtP anchor (LPXTG-type motif, here LPKTA at residues 478-482).
notes: Same polypeptide from the plasmid strain and the integrated strain (pEM181 = pEM76 with the expression cassette of pAF900); tested as whole bacterial cells; (precursor, before any processing on anchoring to the cell wall); also called pEM181
- fold lower binding level than L. paracasei pAF900 [2]: < 16 fold
